One may read the Km as the concentration of substrate that gives half-maximal velocity.

Substrate in series [1]: O=C(O)c1ccccc1O
The series can be described thus: GC-MS (SPME) of methyl salicylate formed, Michaelis-Menten fit. Particulars: SAM co-substrate (2 mM in standard assay), 100 mM KCl; optimal reaction condition. In kind it is biochemical, Hedychium coronarium.

Substrate in series [2]: O=C(O)c1ccccc1
The series is described as follows: GC-MS (SPME) of methyl benzoate formed, Michaelis-Menten fit. Conditions: SAM co-substrate (2 mM in standard assay), 100 mM KCl. In kind it is biochemical, Hedychium coronarium.

B1: HcBSMT2 (Hedychium coronarium) (protein)
chain: MGLKVEQALHMVGGSGETSYATNSRLQEKAIYRTKPVLATTIEEMYKGLLPEHMVVVDLGCSSGSNTFIVVSQVLDIIVELRRMMEMKKPLEVQFFLNDLPGNDFNYVFQSLDKFKNKVEEESKGELLVPYYVVGVAGSFYGRLFPCASVHFFHSSYCLMWLSQVPEELENDQGVSLNKGNIYWTETSSSQVEKAYREQYKKDFLTFLRSRYIELNIGGGMMLTFLGRRKRTPGHGDLCHLWRLLAEALNSMVLEEIIPEEKVSTFNLPIYGPSLEEVKSIIHHEGLFDLDRVEIFESSWDPFDDSGDDSFDLSNYTKSAKNVADCIRAVVEPLIVHQFGDVILDDLFTRYAQNVLKHLLKEKANHTILVIALKKRV
notes: full coding region in pET30a (EcoRI/NotI), E. coli Rosetta (DE3), Ni-NTA partially purified, His tag; 377 residues, 43 kDa predicted; Tyr157, Leu226, Trp242
With B1, the Km in series [1] stood at 26.73 ± 3.88 µM; in series [2] (optimal condition (25 °C, optimum pH 6.5)) it was 87.73 ± 7.03 µM.

B2: HcBSMT1 (Hedychium coronarium) (protein)
chain: MLPNTTIMEGEMSLKVEHALHMVGGTGETSYVANSRLQEKAIHQTKSLLAIAVEETYKALHSDQMVVVDLGCSSGPNTLLMLSHVLSVATKLPRRMELQFFLNDLPGNDFNCLFQSLEGFKKRLEGEIEGDLLVPYYVAGVAGSFYGRLFPRASVHLFHSSFCLMWLSQVPEGLKIEHGVPLNKGNIYWTETSLAKVEKAYQEQFQKDFSTFLKLRHTELNVGGRMVLVFVGRRKRTPGNGDFVHLYGLLGEALNSMVLEGIIQEEKVDTFNLPIYGASFEEVESVIHNEGVFDLDRAEIFESSWDPFDDSKDDIYAIPNYMRSGKNVANYIRAVVEPLIVHQFGTVILDDLFARYAHLVSKHLLKKKANHTILVFALKKKA
notes: full coding region in pET30a (EcoRI/NotI), E. coli Rosetta (DE3), Ni-NTA partially purified, His tag; 382 residues, 43 kDa predicted; Phe162, Val231, Tyr247
As to B2, the Km in series [2] (optimal condition (25 °C, optimum pH 6.0)) stood at 1456.17 ± 163.13 µM.

The values are drawn from paper PMC8058416, “Coordinated and High-Level Expression of Biosynthetic Pathway Genes Is Responsible for the Production of a Major Floral Scent Compound Methyl Benzoate in Hedychium coronarium” (Frontiers in Plant Science, 2021).
